The target of test [1] is wild-type human PTH/PTHrP receptor (hP1R-WT) (human) (UniProt Q03431). The experiment in a line: cell-based or functional assay.
Test [2] concerns the target T1, wild-type human PTH/PTHrP receptor (hP1R-WT) (human, UniProt Q03431 27-593).
T1 sequence (looked up): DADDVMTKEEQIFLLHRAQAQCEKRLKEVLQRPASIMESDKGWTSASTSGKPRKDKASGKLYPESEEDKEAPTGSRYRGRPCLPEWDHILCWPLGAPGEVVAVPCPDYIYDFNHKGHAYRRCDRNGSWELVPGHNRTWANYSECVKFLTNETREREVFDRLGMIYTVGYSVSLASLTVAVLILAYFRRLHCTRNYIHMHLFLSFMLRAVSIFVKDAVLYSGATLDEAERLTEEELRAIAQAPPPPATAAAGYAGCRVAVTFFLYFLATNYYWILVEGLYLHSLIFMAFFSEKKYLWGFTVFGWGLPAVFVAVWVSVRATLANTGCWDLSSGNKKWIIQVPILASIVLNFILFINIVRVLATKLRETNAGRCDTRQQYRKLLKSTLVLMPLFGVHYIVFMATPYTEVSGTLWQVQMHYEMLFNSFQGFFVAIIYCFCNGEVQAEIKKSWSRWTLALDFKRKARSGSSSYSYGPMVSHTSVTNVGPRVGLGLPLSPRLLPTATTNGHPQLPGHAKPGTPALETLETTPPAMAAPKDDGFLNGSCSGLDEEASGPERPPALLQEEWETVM
The experiment in a line: cell-based or functional assay.

Test [3] addresses T1, wild-type human PTH/PTHrP receptor …. The experiment in a line: cell-based or functional assay. This is another data set of the same source.
For test [4] the target is unchanged. The experiment in a line: competition binding, 125I-[M]PTH(1-21) tracer, HKRK-B28 cells. Here is the method: (§1) Cells were then placed on ice, the binding medium was removed, and the monolayer was rinsed three times with 0.5 mL of cold binding buffer. The cells were subsequently lysed with 0.5 mL […] NaOH and counted for radioactivity. For each tracer and in each experiment, the non-specific binding was determined as the radioactivity that bound in the presence of the same unlabeled peptide at a concentration of 1 μM, and was ˜1% of total radioactivity added for each tracer. The maximum specific binding (B₀) was the total radioactivity bound in the absence of competing ligand, corrected for nonspecific binding, and for each tracer, ranged from 8% to 20% of the total radioactivity added. Nonlinear regression was used to calculate binding IC₅₀ values (see below). Scatchard transformations of homologous competition binding data derived from studies with 26 fmol of ¹²⁵I-[Aib^{1,3},M]PTH(1-21) were employed for estimations of apparent equilibrium dissociation constant (kDapps) and total number of ligand binding sites (Bₘₐₓ), assuming a single class of binding sites and equal affinities of the iodinated and non iodinated ligand.
Relative to the apparent binding affinity of [M]PTH(1-14), most of the Aib substitutions reduced affinity, in accordance with the corresponding effects on cAMP-signaling potency (Table 1).

Test [5] has the same target. Kind of test: competition binding, 125I-[M]PTH(1-21) tracer, HKRK-B28 cells, 4 h at 4 C. The protocol: as §1, with “Competition Binding. Binding reactions were performed with HKRK-B28 cells or in COS-7 cells in 24-well plates. The cells were rinsed with 0.5 mL of binding buffer, and then treated successively with 100 μL binding buffer, 100 μL of binding buffer containing various amounts of unlabeled competitor ligand, and 100 μL of binding buffer containing ca. 100,000 cpm of ¹²⁵I-[M]PTH(1-21) or ¹²⁵I-[Aib^{1,3},M]PTH(1-21)} (ca. 26 fmol; final volume=300 μL). Incubations were 4 to 6 h at 4° C., at which time near equilibrium conditions were attained. Cells” for “Cells”
Peptides PTH(1-34) ([Nle^{8,21}, Tyr³⁴]PTH(1-34)amide), [M]PTH(1-14) (M = Ala^{3,12}, Gln¹⁰, Har¹¹, Trp¹⁴), and [M]PTH(1-14 analogs, or C-terminally truncated derivatives thereof, containing α-aminoisobutyric acid (Aib) substitutions at the indicated positions were functionally evaluated in HKRK-B28 cells. “M” in [Aib^{1,3}, M]PTH(1-21) = Nle⁸, Gln¹⁰, Har¹¹, Ala¹², Trp¹⁴, Arg¹⁹ and Tyr²¹. The basal cAMP values (not subtracted) were 4.0 ± 0.1 pmole/well (n = 10). Peptides were based on the rat PTH sequence and were carboxy-amidated. Competition binding analyses were performed with ¹²⁵I-[M]PTH(1-21 )amide (Ala^{1,3}) as tracer for 4 h at 4° C. Data are means (±S.E.M.) Of the number of experiments indiated (n).

The target is the same in test [6]. Kind of test: cell-based or functional assay. This is another data set of the same source.
The target of test [7] is T2, truncated human P1R deleted for residues (24-181) (hP1R-delNt) (human, UniProt Q03431 182-593).
T2 sequence (looked up): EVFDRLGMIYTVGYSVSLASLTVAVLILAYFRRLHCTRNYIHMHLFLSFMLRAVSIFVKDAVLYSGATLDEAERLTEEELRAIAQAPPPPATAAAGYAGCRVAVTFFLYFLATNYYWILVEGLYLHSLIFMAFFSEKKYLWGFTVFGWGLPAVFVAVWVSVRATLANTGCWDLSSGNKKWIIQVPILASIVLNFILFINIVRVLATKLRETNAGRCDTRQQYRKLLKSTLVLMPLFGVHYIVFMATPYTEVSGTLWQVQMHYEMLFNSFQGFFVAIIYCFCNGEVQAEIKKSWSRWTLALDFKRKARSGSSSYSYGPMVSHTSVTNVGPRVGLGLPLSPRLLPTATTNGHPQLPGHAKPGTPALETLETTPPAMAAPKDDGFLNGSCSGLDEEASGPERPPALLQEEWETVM
Kind of test: cell-based or functional assay.

Test [8] addresses T2, truncated human P1R deleted for …. The experiment in a line: competition binding vs 125I-[Aib1,3,M]PTH(1-21), COS-7 cells with hP1R-delNt. The protocol: (§2) Stock solutions of EGTA/trypsin and antibiotics were from GIBCO; fetal bovine serum was from Hyclone Laboratories (Logan, Utah). […] All cells, in 24-well plates, were treated with fresh media and shifted to 33° C. for 12 to 24 h prior to assay.
as §1, with “Competition Binding. Binding reactions were performed with HKRK-B28 cells or in COS-7 cells in 24-well plates. The cells were rinsed with 0.5 mL of binding buffer, and then treated successively with 100 μL binding buffer, 100 μL of binding buffer containing various amounts of unlabeled competitor ligand, and 100 μL of binding buffer containing ca. 100,000 cpm of ¹²⁵I-[M]PTH(1-21) or ¹²⁵I-[Aib^{1,3},M]PTH(1-21)} (ca. 26 fmol; final volume=300 μL). Incubations were 4 to 6 h at 4° C., at which time near equilibrium conditions were attained. Cells” for “Cells”

In test [9] the target is T1, wild-type human PTH/PTHrP receptor …. The experiment in a line: competition binding, 125I-[Aib1,3,M]PTH(1-21) tracer, COS-7 cells expressing hP1R-WT. The protocol:
as §1, with “Competition Binding. Binding reactions were performed with HKRK-B28 cells or in COS-7 cells in 24-well plates. The cells were rinsed with 0.5 mL of binding buffer, and then treated successively with 100 μL binding buffer, 100 μL of binding buffer containing various amounts of unlabeled competitor ligand, and 100 μL of binding buffer containing ca. 100,000 cpm of ¹²⁵I-[M]PTH(1-21) or ¹²⁵I-[Aib^{1,3},M]PTH(1-21)} (ca. 26 fmol; final volume=300 μL). Incubations were 4 to 6 h at 4° C., at which time near equilibrium conditions were attained. Cells” for “Cells”

The target of test [10] is T2, truncated human P1R deleted for …. The experiment in a line: competition binding, 125I-[Aib1,3,M]PTH(1-21) tracer, COS-7 cells expressing hP1R-delNt. The protocol:
as §2
as §1, with “Competition Binding. Binding reactions were performed with HKRK-B28 cells or in COS-7 cells in 24-well plates. The cells were rinsed with 0.5 mL of binding buffer, and then treated successively with 100 μL binding buffer, 100 μL of binding buffer containing various amounts of unlabeled competitor ligand, and 100 μL of binding buffer containing ca. 100,000 cpm of ¹²⁵I-[M]PTH(1-21) or ¹²⁵I-[Aib^{1,3},M]PTH(1-21)} (ca. 26 fmol; final volume=300 μL). Incubations were 4 to 6 h at 4° C., at which time near equilibrium conditions were attained. Cells” for “Cells”

Like-named read-outs stand apart in the source and are kept apart here. Square brackets hold non-standard residues; d marks the D form. Ends that are not written are not given here. hArg = N=C(N)NCCCC[C@H](N)C(=O)O; Aib = CC(C)(N)C(=O)O

Turning to [Aib^11,M]PTH(1-14) (peptide), in test [1], the cAMP EC50 was found to be 67000 nM and the cAMP EMax(obs.) came to 96 pmole/well.

B1: [Aib^1,M]PTH(1-14) (peptide)
peptide: [Aib]VAEIQLMHQ[hArg]AKW-NH2
modifications: N-terminus assumed
SMILES: CC[C@H](C)[C@H](NC(=O)[C@H](CCC(=O)O)NC(=O)[C@H](C)NC(=O)[C@@H](NC(=O)C(C)(C)N)C(C)C)C(=O)N[C@@H](CCC(N)=O)C(=O)N[C@@H](CC(C)C)C(=O)N[C@@H](CCSC)C(=O)N[C@@H](Cc1c[nH]cn1)C(=O)N[C@@H](CCC(N)=O)C(=O)N[C@@H](CCCCNC(=N)N)C(=O)N[C@@H](C)C(=O)N[C@@H](CCCCN)C(=O)N[C@@H](Cc1c[nH]c2ccccc12)C(N)=O
notes: also called 622 Aib-1
In the case of B1, in [2], the “cAMP EC50” value worked out at 10 nM and the “cAMP EMax(obs.)” value came to 273 pmole/well. In addition, in [3], the “cAMP EC50 in SaOS-2 cells” value was 22 nM and the “cAMP EMAX(obs.) in SaOS-2 cells” value is 340 pmole/well. For the same molecule, in test [4], the “fold improvement in affinity relative to [M]PTH(1-14)” value was 13 fold. In test [5], this molecule gave an IC50 of 980 nM.

B2: native PTH(1-14) (rat sequence, amide) (peptide)
peptide: AVSEIQLMHNLGKH-NH2
notes: also called 521 PTH(1-14)
For the molecule B2, in test [6], the “cAMP EC50” value amounted to 90000 nM and the “cAMP EMax(obs.)” value turned out to be 140 pmole/well. In addition, in test [7], the “cAMP EC50” value is 140000 nM and the “cAMP EMax(obs.)” value worked out at 110 pmole/well. The binding result in test [8] is listed as “no binding”.

B3: [Nle^8,21,Tyr^34]PTH(1-34)amide (rat sequence) (peptide)
peptide: AVSEIQLXHNLGKHLASVERXQWLRKKLQDVHNY
modifications: Nle (norleucine) at 8 and 21; C-terminal amide
notes: also called 92 PTH(1-34); 92.5 PTH(1-34)
In the case of B3, the entries for the “cAMP EC50” value in test [2], in [6] and in test [7] were 2.5 nM, 1.4 nM and 680 nM, respectively. For the same molecule, the “cAMP EMax(obs.)” value in [2] is 280 pmole/well; in test [6], 240 pmole/well; in test [7] it was 220 pmole/well. In addition, the “PLC EC50” value in [6] worked out at 17 nM. The “PLC EMAX(obs.)” value in test [6] stood at 4.2 foldxbasal. For the same molecule, in test [3], the “cAMP EC50 in SaOS-2 cells” value was determined as 0.2 nM. Besides, the results for the concentration for half-maximal inhibition (IC50) in [5] and in test [9] were 18 nM and 12 nM, respectively. Moreover, the binding result in test [8] is “no binding”.

B4: [Ala^3,12,Gln^10,Har^11,Trp^14]PTH(1-14)amide (peptide)
peptide: AVAEIQLMHQ[hArg]AKW-NH2
modifications: N-terminus assumed
SMILES: CC[C@H](C)[C@H](NC(=O)[C@H](CCC(=O)O)NC(=O)[C@H](C)NC(=O)[C@@H](NC(=O)[C@H](C)N)C(C)C)C(=O)N[C@@H](CCC(N)=O)C(=O)N[C@@H](CC(C)C)C(=O)N[C@@H](CCSC)C(=O)N[C@@H](Cc1c[nH]cn1)C(=O)N[C@@H](CCC(N)=O)C(=O)N[C@@H](CCCCNC(=N)N)C(=O)N[C@@H](C)C(=O)N[C@@H](CCCCN)C(=O)N[C@@H](Cc1c[nH]c2ccccc12)C(N)=O
notes: X = Har; also called [M]PTH(1-14); 621 [M]PTH(1-14)
As to B4, the “cAMP EC50” value in [2] was 100 nM; in test [6], 49 nM; in [7] it was 40 nM. Moreover, the “cAMP EMax(obs.)” value in test [2] was determined as 270 pmole/well; in test [6], 240 pmole/well; in test [7], 220 pmole/well. Besides, in test [6], the “PLC EC50” value turned out to be 4700 nM. In addition, in [6], the “PLC EMAX(obs.)” value is 3.9 foldxbasal. Further, the “cAMP EC50 in SaOS-2 cells” value in test [3] amounted to 340 nM. Moreover, the results for the IC50 in test [5], in test [9] and in test [10] were 13000 nM, 20000 nM and 17400 nM, respectively.

B5: [Aib^1,3,M]PTH(1-11) (peptide)
peptide: [Aib]V[Aib]EIQLMHQ[hArg]-NH2
modifications: N-terminus assumed
SMILES: CC[C@H](C)[C@H](NC(=O)[C@H](CCC(=O)O)NC(=O)C(C)(C)NC(=O)[C@@H](NC(=O)C(C)(C)N)C(C)C)C(=O)N[C@@H](CCC(N)=O)C(=O)N[C@@H](CC(C)C)C(=O)N[C@@H](CCSC)C(=O)N[C@@H](Cc1c[nH]cn1)C(=O)N[C@@H](CCC(N)=O)C(=O)N[C@@H](CCCCNC(=N)N)C(N)=O
notes: also called 682 [Aib^1,3, M]PTH (1-11); [Aib^1,3,Gln^10,Har^11]PTH(1-11)
For the molecule B5, the “cAMP EC50” value in [2] is 4 nM; in test [6] it was 2.1 nM; in test [7], 2 nM. Besides, the “cAMP EMax(obs.)” value in test [2] was 243 pmole/well; in test [6], 190 pmole/well; in test [7], 220 pmole/well. Further, the IC50 in test [5] stood at 970 nM; in [9], 16000 nM; in [10], 13000 nM.

In general, IC50 refers to the concentration that inhibits the measured activity by half.

The values are drawn from patent publication US20050026839A1 (GENERAL HOSPITAL, published 2005).
